# T1: recombinant PPTC7 (31-304) wild type (human, UniProt Q8NI37 31-304)
# T1 construct: PPTC7, human, residues 31-304; pGEX-6P-2 vector; also called PPTC7 wild-type; GST-PPTC7(31-304); source: E. coli BL21(DE3), purified (glutathione-sepharose, PreScission cleavage, Superdex 75)
# T1 sequence (looked up): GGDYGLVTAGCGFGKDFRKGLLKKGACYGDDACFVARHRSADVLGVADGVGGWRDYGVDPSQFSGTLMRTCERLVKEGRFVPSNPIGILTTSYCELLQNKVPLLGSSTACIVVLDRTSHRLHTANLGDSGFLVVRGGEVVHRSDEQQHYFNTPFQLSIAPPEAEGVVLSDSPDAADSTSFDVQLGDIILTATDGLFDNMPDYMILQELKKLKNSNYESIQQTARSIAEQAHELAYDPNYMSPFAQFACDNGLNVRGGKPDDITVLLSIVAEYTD
# T2: PPTC7 (31-304) D290N (human, UniProt Q8NI37 31-304, D290N)
# T2 construct: human PPTC7, residues 31-304, from pGEX-6P-2 GST-PPTC7(31-304)(D290N); The purification is described for GST-PPTC7 (31-304); also called PPTC7 D290N; PPTC7-D290N; source: E. coli BL21(DE3), purified (glutathione-sepharose, PreScission cleavage, Superdex 75 gel filtration); not shown: GST, N-terminal, cleaved
# T2 sequence (looked up): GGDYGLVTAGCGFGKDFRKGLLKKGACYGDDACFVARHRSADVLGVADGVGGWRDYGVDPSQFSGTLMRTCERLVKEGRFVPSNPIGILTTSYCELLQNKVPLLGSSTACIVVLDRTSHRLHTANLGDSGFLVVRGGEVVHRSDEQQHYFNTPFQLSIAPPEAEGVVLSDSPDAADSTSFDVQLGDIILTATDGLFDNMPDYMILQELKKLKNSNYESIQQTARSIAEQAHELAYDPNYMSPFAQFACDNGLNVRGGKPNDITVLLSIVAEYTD
# T3: PPTC7 (31-304), wild type (human, UniProt Q8NI37 31-304)
# T3 construct: human PPTC7, residues 31-304, from pGEX-6P-2 GST-PPTC7(31-304); GST removed with PreScission protease; assayed with 10 mM MnCl2 in the buffer; also called PPTC7 + Mn2+; Protein Phosphatase Targeting COQ7; source: E. coli BL21(DE3), purified (glutathione-sepharose, PreScission cleavage, Superdex 75 gel filtration); not shown: GST, N-terminal, cleaved
# T3 sequence (looked up): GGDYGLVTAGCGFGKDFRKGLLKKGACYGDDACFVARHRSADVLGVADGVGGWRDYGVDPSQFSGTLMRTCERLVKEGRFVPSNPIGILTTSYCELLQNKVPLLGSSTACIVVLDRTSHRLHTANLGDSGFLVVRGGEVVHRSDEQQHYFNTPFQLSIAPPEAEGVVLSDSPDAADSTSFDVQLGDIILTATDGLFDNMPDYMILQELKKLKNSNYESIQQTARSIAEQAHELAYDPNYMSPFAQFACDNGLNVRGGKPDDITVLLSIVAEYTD
# Key:
# Conditions in all cases: both partners purified
# [1] = target: T1, recombinant PPTC7 (31-304) wild type; test: ITC; 500 µM peptide titrated into 25 µM PPTC7; 25 °C; 50 mM HEPES pH 7.5, 300 mM NaCl, 10 mM MnCl2, 2 mM β-mercaptoethanol; MicroCal PEAQ-ITC
# PPTC7 (31-304) D290N = target: T2, PPTC7 (31-304) D290N; test: ITC; 500 µM peptide (syringe) titrated into 25 µM PPTC7 (cell); 25 °C; 50 mM HEPES pH 7.5, 300 mM NaCl, 10 mM MnCl2, 2 mM β-mercaptoethanol; MicroCal PEAQ-ITC
# [2] = target: T3, PPTC7 (31-304), wild type; test: as above
Binder,Kd [1] [µM],Kd (PPTC7 (31-304) D290N) [µM],stoichiometry N (PPTC7 (31-304) D290N),stoichiometry N [2]
BNIP3 peptide (N113-R139) (also called BNIP3(N113-R139); source: synthetic peptide) peptide: not shown,20.1,–,–,–
"BNIP3(N113-R139) peptide (human BNIP3, residues N113-R139 (Q12983, 194 aa); also called BNIP3 peptide; source: synthetic peptide) peptide: not shown",–,–,–,1

# Further lines, results first:
Kd [1] [µM],Kd (PPTC7 (31-304) D290N) [µM],stoichiometry N (PPTC7 (31-304) D290N),stoichiometry N [2],Binder
37.5,–,–,–,NIX peptide (A138-R163) (also called BNIP3L(A138-R163); source: synthetic peptide) peptide: not shown
–,35.9 ± 1.09,1,1,"BNIP3L(A138-R163) peptide (human NIX (BNIP3L), residues A138-R163; also called NIX; NIX peptide; source: synthetic peptide) peptide: not shown"

# Reference: PMC11316107, “PPTC7 antagonizes mitophagy by promoting BNIP3 and NIX degradation via SCF^FBXL4” (EMBO Reports, 2024)
